Measurements: paper PMC3307893

Target: Anaphase-Promoting Complex/Cyclosome (APC), Xenopus, immunoprecipitated on Cdc27 antibody beads (Xenopus (endogenous in egg extract))
Experiment: pull-down

percent of the deubiquitinated Cdc20 bound to the APC: 47%
Substance: double HA-tagged human Cdc20, wild type (from UniProt Q12834 1-499) (natural protein)
